The target in this test is SARS-CoV-2 spike SΔ21 displayed on VSV-eGFP-SARS-CoV-2-SΔ21 particles (SARS-CoV-2 isolate Wuhan-Hu-1) (UniProt P0DTC2). The test is described as follows: cell-based or functional assay.

Consider mAb S309 (antibody), for which the EC50, neutralization of VSV-SARS-CoV-2-SΔ21 (GRNT, Vero E6 cells) stood at 0.067 µg/mL.

Source of the values: patent publication US20230346919A1.
